Assay results as given in US20110064751A1 (Hoffmann-La Roche, published 2011).
Numbering of substitutions follows the chain as printed.

Experiments:
[1] = molecular target: T1, Human TNC-A1 + avi-tag + his6-tag (human, biotinylated in vivo at the avi-tag); test: phage display selection and ELISA on biotinylated human TNC-A1
T1 chain: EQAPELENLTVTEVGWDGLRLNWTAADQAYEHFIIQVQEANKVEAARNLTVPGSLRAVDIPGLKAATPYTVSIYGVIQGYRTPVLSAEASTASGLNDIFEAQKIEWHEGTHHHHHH
Protocol: See SEQ ID NO: 59 of Table 5. The antigen was biotinylated in vivo upon expression.
Selections were carried out over 3 rounds using constant antigen concentrations at 100 nM. In round 2, capture of antigen:phage complexes was performed on neutravidin plates instead of streptavidin beads.

[2] = molecular target: T2, Murine FAP ectodomain + poly-lys-tag + his6-tag (murine, UniProt P97321 27-761); test: primary phage selections, ELISA and BIACORE kinetic screening
T2 construct: also called mu FAP
Protocol: See SEQ ID NOs: 53 and 55 of Table 5. Prior to selections, the antigens were coated into immunotubes at a concentration of either 10 μg/ml or 5 μg/ml, depending on round of selection.
Specific binders were defined as signals 5× higher than background and were identified by ELISA.
ELISA-positive clones were bacterially expressed as 1 mL cultures in 96-well format and supernatants were subjected to a kinetic screening experiment using BIACORE T100.

B1: 2F11 Fab (Fab, V domains shown)
VH: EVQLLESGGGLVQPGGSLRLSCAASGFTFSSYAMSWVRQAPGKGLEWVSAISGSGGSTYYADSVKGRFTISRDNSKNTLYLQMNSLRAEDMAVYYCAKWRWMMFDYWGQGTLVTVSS
VL: EIVLTQSPGTLSLSPGERATLSCRASQSVSSSYLAWYQQKPGQAPRLLIYGASSRATGVPDRFSGSGSGTDFTLTISRLEPEDFAVYYCQQGQYTPPTFGQGTKVEIK
notes: Fab fragment; also called clone 2F11
[1]
  binding result: binds

B2: 4B8 Fab (Fab, V domains shown)
VH: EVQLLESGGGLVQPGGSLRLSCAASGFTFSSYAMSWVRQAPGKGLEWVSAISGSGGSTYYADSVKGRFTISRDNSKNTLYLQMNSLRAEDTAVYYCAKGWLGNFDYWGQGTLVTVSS
VL: B1 VL with V59I, Y94V, T95I
notes: Fab fragment; also called anti-murine FAP clone 4B8
[2]
  binding result: binds
